The record followed here is publication PMC6158253.

For the data set, the system named is T1, BmoR (MarR-type regulator) (Bacteroides fragilis 638R), ORF:dbdd3c1d.
T1 sequence: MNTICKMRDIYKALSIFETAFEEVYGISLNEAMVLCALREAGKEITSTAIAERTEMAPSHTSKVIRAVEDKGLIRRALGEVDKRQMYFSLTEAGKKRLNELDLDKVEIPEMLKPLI
The experiment in a line: EMSA. In general terms: A gel shift assay detects complexes by their altered migration in electrophoresis.

In the case of “ACGAGACCGATAAATGTGAGTCGGTTCTTTTTCAAAAATGCTTTAATCATCTTTATTTCAGGGTGTTTTAGAATCTGTCTGAATTTTGTTCGAGATTGTTTTGAGATTTATTTTCAAGGATATTCTCTTGTCTCTGTGAAGGCATAGCGGGCTATGTGACGCATGAAAACA (double strand) [BF638R_2699-2701 operon promoter, 171 bp]”, the binding result was “no binding”.
To “CCGGCCTCCATATCAAACAATAACCCGTTGCAACCTATGGATATTGGTGGTGTTCCATTCTATCGTACCTATGCCGTTAATTTAACCGTAAGATTCTAAAACATCTATATTGAAAGATATGAAAACATTTAAATATTTATTTGCAGGAGTTTGTTCCGTGT (double strand) [BF638R_4194 promoter (Methods text says BF638R_4199), 161 bp]” belongs “no binding”; to “CCTGCTACGCCTCCAATAATAATAATCTTCATTTGAATATATTTTCGTTTTAAAATAGTTTCCTATGGAAATAAACGTTTGCCGACTTAAAAAGGTTCATGGAAAAGCTTAAAAAATTAACAAGTATGGGTTATCTTACTTACGGAAGTGC (double strand) [BF638R_0572-bmoR operon promoter (bmoO), 151 bp]”, “binds”.
To “CGTCTGACAGCAAGATAAAGTCCCTTAAAAGGGCCATGTTTCTTAATCGCTTCAATAGCGTATTGCGAACAAGTAGGAGTGAAACGACATGAAGGAGGAGT (double strand) [hlyD fragment (non-competitor DNA), 101 bp]” belongs “no binding”.
